Results taken from the supplement of paper PMC5998384.

Experiments:
HeLa Kyoto [1] = assay: solubility in G1/S (NP-40 vs SDS abundance) (log2 ratio); higher = more soluble; details: cell cycle stage: G1/S
HeLa Kyoto [2] = assay: melting temperature (median over replicates), in situ; higher = more thermally stable
HeLa Kyoto [3] = assay: solubility change mitosis vs G1/S (difference of NP-40 vs SDS log2 ratios) (log2 ratio difference); higher = more soluble in mitosis
HeLa Kyoto [4] = assay: thermal stability score vs G1/S (z-score of summed log2 fold changes over temperatures); higher = more thermally stable than in G1/S
[5] = cell cycle stage: early G1 (4.5 h after nocodazole release)
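Wherever melting temperature (median over replicates), in situ is given: HeLa Kyoto cells synchronized by double thymidine or nocodazole block, proteins quantified by TMT10plex mass spectrometry, three independent biological replicates.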
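Wherever solubility change mitosis vs G1/S (difference of NP-40 vs SDS log2 ratios) is given: synchronized HeLa Kyoto cells (double thymidine block for G1/S, nocodazole release for mitosis), protein amounts in NP-40 versus SDS lysates quantified by mass spectrometry, three biological replicates.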
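Wherever solubility in G1/S (NP-40 vs SDS abundance) is given: HeLa Kyoto cells arrested at G1/S by double thymidine block, proteins quantified by TMT10plex mass spectrometry in mild NP-40 versus SDS extracts, three biological replicates.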
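Wherever thermal stability score vs G1/S (z-score of summed log2 fold changes over temperatures) is given: synchronized HeLa Kyoto cells, proteins quantified by TMT10plex mass spectrometry, three biological replicates, mitosis taken 0.5 h after nocodazole release, G1/S directly after double thymidine block.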

| Sequence | solubility in G1/S (log2) (HeLa Kyoto [1]) | melting temperature (HeLa Kyoto [2]; cell cycle stage: G1/S) [°C] | melting temperature (HeLa Kyoto [2]; cell cycle stage: mitosis) [°C] | solubility change mitosis (log2) (HeLa Kyoto [3]) | thermal stability score (HeLa Kyoto [4]; [5]) | thermal stability score (HeLa Kyoto [4]; cell cycle stage: mitosis) |
| --- | --- | --- | --- | --- | --- | --- |
| MADSASESDTDGAGGNSSSSAAMQSSCSSTSGGGGGGGGGGGGGKSGGIVISPFRLEELTNRLASLQQENKVLKIELETYKLKCKALQEENRDLRKASVTIQARAEQEEEFISNTLFKKIQALQKEKETLAVNYEKEEEFLTNELSRKLMQLQHEKAELEQHLEQEQEFQVNKLMKKIKKLENDTISKQLTLEQLRREKIDLENTLEQEQEALVNRLWKRMDKLEAEKRILQEKLDQPVSAPPSPRDISMEIDSPENMMRHIRFLKNEVERLKKQLRAAQLQHSEKMAQYLEEERHMREENLRLQRKLQREMERREALCRQLSESESSLEMDDERYFNEMSAQGLRPRTVSSPIPYTPSPSSSRPISPGLSYASHTVGFTPPTSLTRAGMSYYNSPGLHVQHMGTSHGITRPSPRRSNSPDKFKRPTPPPSPNTQTPVQPPPPPPPPPMQPTVPSAATSQPTPSQHSAHPSSQP [CCDC6] | 0.826 | 53.5 | 53.6 | -0.174 | -2.05 | 0.137 |
| MADSGLLLKRGSCRSTWLRVRKARPQLILSRRPRRRLGSLRWCGRRRLRWRLLQAQASGVDWREGARQVSRAAAARRPNTATPSPIPSPTPASEPESEPELESASSCHRPLLIPPVRPVGPGRALLLLPVEQGFTFSGICRVTCLYGQVQVFGFTISQGQPAQDIFSVYTHSCLSIHALHYSQPEKSKKELKREARNLLKSHLNLDDRRWSMQNFSPQCSIVLLEHLKTATVNFITSYPGSSYIFVQESPTPQIKPEYLALRSVGIRREKKRKGLQLTESTLSALEELVNVSCEEVDGCPVILVCGSQDVGKSTFNRYLINHLLNSLPCVDYLECDLGQTEFTPPGCISLLNITEPVLGPPFTHLRTPQKMVYYGKPSCKNNYENYIDIVKYVFSAYKRESPLIVNTMGWVSDQGLLLLIDLIRLLSPSHVVQFRSDHSKYMPDLTPQYVDDMDGLYTKSKTKMRNRRFRLAAFADALEFADEEKESPVEFTGHKLIGVYTDFAFRITPRNRESHNKILRDLSILSYLSQLQPPMPKPLSPLHSLTPYQVPFNAVALRITHSDVAPTHILYAVNASWVGLCKIQDDVRGYTNGPILLAQTPICDCLGFGICRGIDMEKRLYHILTPVPPEELRTVNCLLVGAIAIPHCVLKCQRGIEGTVPYVTTDYNFKLPGASEKIGAREPEEAHKEKPYRRPKFCRKMK [NOL9] | -1.82 | – | 51.3 | 0.92 | 1.99 | 1.53 |
| MADSKEGVLPLTAASTAPISFGFTRTSARRRLADSGDGAGPSPEEKDFLKTVEGRELQSVKPQEAPKELVIPLIQNGHRRQPPARPPGPSTDTGALADGVVSQAVKELIAESKKSLEERENAGVDPTLAIPMIQKGCTPSGEGADSEPRAETVPEEANYEAVPVEAYGLAMLRGMGWKPGEGIGRTFNQVVKPRVNSLRPKGLGLGANLTEAQALTPTGPSRMPRPDEEQEKDKEDQPQGLVPGGAVVVLSGPHRGLYGKVEGLDPDNVRAMVRLAVGSRVVTVSEYYLRPVSQQEFDKNTLDLRQQNGTASSRKTLWNQELYIQQDNSERKRKHLPDRQDGPAAKSEKAAPRSQHWLHRDLRVRFVDNMYKGGQYYNTKMIIEDVLSPDTCVCRTDEGRVLEGLREDMLETLVPKAEGDRVMVVLGPQTGRVGHLLSRDRARSRALVQLPRENQVVELHYDAICQYMGPSDTDDD [GPKOW] | 0.393 | 48.8 | 49.8 | -0.0336 | 0.906 | 2.23 |
| MADTDLFMECEEEELEPWQKISDVIEDSVVEDYNSVDKTTTVSVSQQPVSAPVPIAAHASVAGHLSTSTTVSSSGAQNSDSTKKTLVTLIANNNAGNPLVQQGGQPLILTQNPAPGLGTMVTQPVLRPVQVMQNANHVTSSPVASQPIFITTQGFPVRNVRPVQNAMNQVGIVLNVQQGQTVRPITLVPAPGTQFVKPTVGVPQVFSQMTPVRPGSTMPVRPTTNTFTTVIPATLTIRSTVPQSQSQQTKSTPSTSTTPTATQPTSLGQLAVQSPGQSNQTTNPKLAPSFPSPPAVSIASFVTVKRPGVTGENSNEVAKLVNTLNTIPSLGQSPGPVVVSNNSSAHGSQRTSGPESSMKVTSSIPVFDLQDGGRKICPRCNAQFRVTEALRGHMCYCCPEMVEYQKKGKSLDSEPSVPSAAKPPSPEKTAPVASTPSSTPIPALSPPTKVPEPNENVGDAVQTKLIMLVDDFYYGRDGGKVAQLTNFPKVATSFRCPHCTKRLKNNIRFMNHMKHHVELDQQNGEVDGHTICQHCYRQFSTPFQLQCHLENVHSPYESTTKCKICEWAFESEPLFLQHMKDTHKPGEMPYVCQVCQYRSSLYSEVDVHFRMIHEDTRHLLCPYCLKVFKNGNAFQQHYMRHQKRNVYHCNKCRLQFLFAKDKIEHKLQHHKTFRKPKQLEGLKPGTKVTIRASRGQPRTVPVSSNDTPPSALQEAAPLTSSMDPLPVFLYPPVQRSIQKRAVRKMSVMGRQTCLECSFEIPDFPNHFPTYVHCSLCRYSTCCSRAYANHMINNHVPRKSPKYLALFKNSVSGIKLACTSCTFVTSVGDAMAKHLVFNPSHRSSSILPRGLTWIAHSRHGQTRDRVHDRNVKNMYPPPSFPTNKAATVKSAGATPAEPEELLTPLAPALPSPASTATPPPTPTHPQALALPPLATEGAECLNVDDQDEGSPVTQEPELASGGGGSGGVGKKEQLSVKKLRVVLFALCCNTEQAAEHFRNPQRRIRRWLRRFQASQGENLEGKYLSFEAEEKLAEWVLTQREQQLPVNEETLFQKATKIGRSLEGGFKISYEWAVRFMLRHHLTPHARRAVAHTLPKDVAENAGLFIDFVQRQIHNQDLPLSMIVAIDEISLFLDTEVLSSDDRKENALQTVGTGEPWCDVVLAILADGTVLPTLVFYRGQMDQPANMPDSILLEAKESGYSDDEIMELWSTRVWQKHTACQRSKGMLVMDCHRTHLSEEVLAMLSASSTLPAVVPAGCSSKIQPLDVCIKRTVKNFLHKKWKEQAREMADTACDSDVLLQLVLVWLGEVLGVIGDCPELVQRSFLVASVLPGPDGNINSPTRNADMQEELIASLEEQLKLSGEHSESSTPRPRSSPEETIEPESLHQLFEGESETESFYGFEEADLDLMEI [POGZ] | -0.704 | – | 49.5 | 0.341 | 1.1 | 2.58 |
